Assay [1] addresses T1, human IL-4 Receptor α (hIL-4Rα) ectodomain (Example 17) (human, UniProt P24394 26-232, AlexaFluor 647 label, or biotin bound to PE-labeled streptavidin tetramer).
T1 construct: extracellular domain; Used as AF647-labelled monomer (5 nM) and as biotinylated ectodomain on SA-PE tetramer; also called hIL-4Rα-AlexaFluor647 (monomeric); hIL-4Rα-biotin-StAv-PE (tetrameric)
The experiment in a line: method not stated.

The target of assay [2] is T1, human IL-4 Receptor α (hIL-4Rα) …. In words: Biacore at +25°C. For orientation: In SPR one partner is held on a chip, and binding of the other changes the refractive index at the surface.
Assay [3] addresses T2, Ole e 1 (olive, UniProt P19963 1-145).
T2 construct: Also used oligonucleotide-barcoded for cell staining; also called olive allergen; negative control allergen
T2 sequence (looked up): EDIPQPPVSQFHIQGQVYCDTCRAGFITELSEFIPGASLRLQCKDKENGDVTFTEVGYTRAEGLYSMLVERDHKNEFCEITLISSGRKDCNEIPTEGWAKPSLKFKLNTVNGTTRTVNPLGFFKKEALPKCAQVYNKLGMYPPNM
In words: centered log-ratio of barcode count. An excerpt: (§1) The barcoded antigen library was mapped by the CellRanger software to a custom short-read reference that contained the DNA tag sequences of the four barcoded antigens, namely, Der p 1, Der p 2, Der f 1 and Ole e 1. These tag sequences were quantified across all cells and were normalized by taking the centered log-ratio (CLR) per barcoded antigen across each sample capture. In addition, background antigen signal for each barcoded antigen was removed by DSB (Denoised and Scaled by Background). Both the CLR and the DSB normalized values were used to quantify the target antigen signals, namely, those for Der p 1, Der p 2 and Der f 1, against the control signal, namely, that for Ole e 1.

Assay [4] deals with T3, Der f 1 (house dust mite, UniProt P16311 99-321).
T3 construct: Also used oligonucleotide-barcoded for cell staining
T3 sequence (looked up): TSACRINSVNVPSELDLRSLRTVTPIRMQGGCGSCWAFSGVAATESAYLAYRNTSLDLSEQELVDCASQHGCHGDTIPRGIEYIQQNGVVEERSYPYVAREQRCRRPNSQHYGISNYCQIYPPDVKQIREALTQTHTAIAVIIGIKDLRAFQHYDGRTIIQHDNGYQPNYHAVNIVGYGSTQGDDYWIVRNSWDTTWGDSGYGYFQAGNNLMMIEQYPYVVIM
The experiment in a line: centered log-ratio of barcode count.
Text: as §1

For assay [5], the target named is T4, Der p 2 (house dust mite, UniProt P49278 18-146).
T4 construct: Also used oligonucleotide-barcoded for cell staining
T4 sequence (looked up): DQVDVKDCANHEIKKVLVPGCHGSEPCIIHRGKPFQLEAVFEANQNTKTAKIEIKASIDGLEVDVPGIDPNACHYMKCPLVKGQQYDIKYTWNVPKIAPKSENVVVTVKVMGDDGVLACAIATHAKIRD
The experiment in a line: centered log-ratio of barcode count.
Text: as §1

For assay [6], the target named is T3, Der f 1. The experiment in a line: barcode rank score against control Ole e 1.
The target in assay [7] is T4, Der p 2. The experiment in a line: barcode rank score against control Ole e 1.
Assay [8] concerns the target T4, Der p 2. The experiment in a line: ELISA, coated Der p2. The method, then: After selecting allergen-specific antibodies, relative binding to Der p 1, Der p 2, and Der f 1 were quantified by ELISA. […] Specifically, binding microtiter plates were coated with 100 μl of 2 μg/mL of natural Der p 1, Der p 2, Der f 1, and Ole e 1 in PBS overnight at 4′C. IgE antibodies were prepared at a concentration of 1 μg/mL and serially diluted three-fold in PBS with 0.5% w/v BSA. After washing with 0.05% v/v Tween® 20 in PBS and blocking in PBS with 0.5% w/v BSA, 100 μl of the diluted IgE antibodies were transferred to the plates and incubated for one hour at ambient temperature. Subsequently, 100 μL of anti-mouse IgE antibody conjugated to horse-radish peroxidase (HRP) diluted at 1:5000 was added. The plates were then incubated for one hour at ambient temperature, and washed in 0.05% v/v/Tween® 20 in PBS. Subsequently, the HRP substrate 3,3′,5,5′-tetramethylbenzidine (TMB) was added. The reaction was stopped (with 100 μL of sulfuric acid 2.0 N) and optical density values determined using a plate reader at 450 nm.
In general terms: An ELISA detects its analyte on a solid surface through an enzyme-linked reagent.

Assay [9] has as its target T2, Ole e 1. In words: barcoded-antigen count on source cell.
Assay [10] concerns the target T3, Der f 1. The experiment in a line: barcoded-antigen count on source cell.
For assay [11], the target named is T4, Der p 2. In words: barcoded-antigen count on source cell.
The target in assay [12] is T4, Der p 2. The experiment in a line: barcoded antigen sequencing of single IgE PCs with trapped IgE [cont.].
Text: as §1

Assay [13] deals with T4, Der p 2. The experiment in a line: antigen specificity score against Ole e 1 from barcode counts of single IgE PCs [cont.]. As to the method:
Antigen specificity score (AgSS) for IgG were calculated by subtracting the quantile of hIL-6Rα barcoded UMI counts multiplied by a penalty factor (x) from the quantile of hIL-4Rα barcoded UMI counts, AgSS=Q_hIL-4Rα-Q_hIL-6Rα^x. AgSS for IgE were calculated with a similar formula for mouse and human single cell data. For IgE scores the target antigens were either Der p1, Der p2 or Der f1 and the control was always Ole e1.
Following processing of the three single-cell libraries, the gene expression and V(D)J region sequencing data were used to subset PCs with a valid IgE constant region and detectable expression of IgE and CD79a but lacking the expression of Ms4a1 and CD19 typically found in non-PC B cells. IgE-expressing PCs were then assessed for differential expression against additional IgA, IgG, and IgM plasma cell isotypes to further characterize the unique transcriptional signature of IgE-secreting PCs. IgE-secreting PCs were then assessed for antigen specificity by comparing the normalized levels of the target antigens, namely, Der p 1, Der p 2, or Der f 1, against the normalized level of the control antigen Ole e 1. This was performed by calculating an empirical score for each target antigen and subtracting the […] with a penalty factor. The formula used to do is set forth below: […]

The target of assay [14] is T4, Der p 2. In words: barcoded antigen sequencing of single IgE PCs with trapped IgE.

Where only a bound is given, the exact number is not on record here.

B1: ab_1 (antibody, V domains shown)
VH: EVQLVESGGGLEQPGGSLRLSCAGSGFTFSDYAMTWVRQAPGKGLEWVSSISGSGGNTYYADSVKGRFTISRDNSKNTLYLQMNSLRAEDTAVYYCAKDALTIAIRPYYYGLDVWGQGTTVTVSS
VL: DIVMTQSPLSLPVTPGEPASISCRSSQSLDYSYGYNYLDWYLQKSGQSPQLLIYLASNRASGVPDRFSGSGSGTDFTLKISRVEAEDVGFYYCMQSLSTPYTFGQGTKLEIK
As usually defined, the Kd is a measure of binding affinity in units of concentration. Lower therefore signals tighter binding. In assay [1], B1 gave an equilibrium dissociation constant (Kd) of 1.68 nM. The “t1/2 pH7.4” value in assay [2] was > 116 min.

B2: ab_3 (antibody, V domains shown)
VH: EVQLVESGGGLEQPGGSLRLSCAGSGFTFRDYAMTWVRQAPGKGLEWVSSISGSGGNTYYADSVKGRFTISRDNSKNTLYLQMNSLRAEDTAVYYCAKDRLSKTIRPYYYGLDVWGQGTTVTVSS
VL: DIVMTQSPLSLPVTPGEPASISCRSSQSLLYSTGYNYLDWYLQKSGQSPQLLIYLGSNRASGVPDRFSGSGSGTDFTLKISRVEAEDVGFYYCMQSLSTPYTFGQGTKLEIK
Take B2: the Kd in [1] is 14.2 nM. For the same molecule, in assay [2], the “t1/2 pH7.4” value turned out to be 10.6 min.

B3: ab_2 (antibody, V domains shown)
VH: EVQLVESGGGLEQPGGSLRLSCAGSGFTFRDYAMTWVRQAPGKGLEWVSSISGSGSNTYYADSVKGRFTISRDNSKNTLYLQMNSLRAEDTAVYYCARDRLTAAVRPYYYGLDVWGQGTTVTVSS
VL: DIVMTQSPLSLPVTPGEPASISCRSSQSLDYSSGYNYLDWYLQKSGQSPQLLIYLASNRASGVPDRFSGSGSGTDFTLKISRVEAEDVGFYYCMQSLQTPYTFGQGTKLEIK
In assay [1], B3 displayed a dissociation constant Kd of 3.26 nM. The “t1/2 pH7.4” value in [2] is 21.7 min.

B4: IgE mAb 21_2 (antibody, V domains shown)
VH: QVQLQQSGPELVKPGASVKISCKAPGNAFSYSWMNWVKQRPGKGLEWVGRIYPGDGDTNYNGKFMGKATLTADKSSNTAYIQLSSLTSEDSAVYFCARSGGGTLYWYFDVWGTGTTVTVSS
VL: DIVMTQSPSSLALSVGQKVTMNCRSSQSLLNSFNQKNYLAWFQQKPGQSPRLLIYFASTRESGVPDRFIGSGSGTDFTLTISSVQAEDLADYFCQQHYNTPLTFGAGTTLELK
notes: IgE (IGHE, IGKC) from HDM-exposed mouse, LymphNode
The EC50 (read off the curve) is the concentration needed to bring the measured effect to its halfway point. Higher therefore signals a less potent agent. For B4, in the assay with Ole e 1 [3], the Olee1_ab_clr came out at 0.826. For the same molecule, the Derf1_ab_clr in the assay with Der f 1 [4] is -0.795. In addition, the Derp2_ab_clr with Der p 2 [5] is 4.01. In addition, the Derf1_ab_rank with Der f 1 [6] was -0.386. The same molecule yielded a Derp2_ab_rank in the assay with Der p 2 [7] of 0.412. Also, the “EC50 (read off the curve)” value with Der p 2 [8] is ~0.2 nM. The molecule also returned an Olee1_ab_raw in the assay with Ole e 1 [9] of 4 counts. Further, the Derf1_ab_raw in the assay with Der f 1 [10] was determined as 1 counts. The molecule also yielded a Derp2_ab_raw with Der p 2 [11] of 215 counts.

B5: Candidate ID 16 (antibody, V domains shown)
VH: EVHLQQSGPDLVKPGASVMISCQASGYSFTAYYINWVKQSPEKSLEWIGEINPGSGGVIYNRKFEAKATLIVDKSSNTAFMLLTRLTSEDSAIYYCARKGFYQFDYWGQGTTLTVSS
VL: SVVMTQIPKFLVVSAGDRVTITCKASQSVNDGVFWYQQKTGQSPKLVIYHTSNRYTGVSDRFTGSGYGTEFTFTISAVQSEDLAIYFCQQDYTSPLTFGGGTRLEIK
notes: IgE PCs LN
Regarding B5, in the assay with Der p 2 [12], the “Normalized Barcode Count” value was 0.58. In addition, in the assay with Der p 2 [13], the “Antigen Score” value came to 0.336. In addition, the “Raw Antigen Barcode Count” value with Der p 2 [14] turned out to be 6.

B6: IgE mAb 17_2 (antibody, V domains shown)
VH: EVHLQQSGPDLVKPGASVMISCQASGYSFTAYYINWVKQSPEKSLEWIGEINPGSGGVIYNRKFEAKATLIVDKSSNTAFMLLTRLTSEDSAIYYCARKGFYQFDYWGQGTTLTVSS
VL: SVVMTQIPKFLVVSAGDRVTITCKASQSVNDGVFWYQQKTGQSPKLVIYHTSNRYTGVSDRFTGSGYGTEFTFTISAVQSEDLAIYFCQQDYTSPLTFGGGTRLEIK
notes: as for B4
As for B6, the Olee1_ab_clr in the assay with Ole e 1 [3] worked out at 0.603. Moreover, the Derp2_ab_clr with Der p 2 [5] is 0.58. Also, the Derp2_ab_rank with Der p 2 [7] worked out at 0.336. Moreover, the binding result with Der p 2 [8] is listed as “no binding (tested: about 6e-9 M (log10 M about -8.25))”. The molecule also gave an Olee1_ab_raw with Ole e 1 [9] of 3 counts. In the assay with Der p 2 [11], this molecule showed a Derp2_ab_raw of 6 counts.

B7: IgE mAb 1_2 (antibody, V domains shown)
VH: QIQLVQSGPELKKPGETVKISCKASGYTFTTYGMSWVKQAPGKGLKWMGWINTYSGVPTYADDFKGRFVFSLETSASTAYLQINNLKNEDTATYFCARAYYYGSSYLIWYFDVWGTGTTVTVSS
VL: NIVLTQSPASLAVSLGQRATISCRASESVDSYGNSFMHWYQQKPGQPPKLLIYLASNLESGVPARFSGSGSRTDFTLTIDPVEADDAATYYCQQNNEDPYTFGGGTKLEIK
notes: IgE (IGHE, IGKC) from HDM-exposed mouse, BoneMarrow
Take B7: the Olee1_ab_clr in the assay with Ole e 1 [3] was -1.12. The Derf1_ab_clr in the assay with Der f 1 [4] amounted to 1.32. In the assay with Der p 2 [5], the Derp2_ab_clr came out at 1.65. Further, in the assay with Der f 1 [6], the Derf1_ab_rank came to 0.982. The Derp2_ab_rank with Der p 2 [7] was 1. Further, in the assay with Ole e 1 [9], the Olee1_ab_raw is 0 counts. For the same molecule, the Derf1_ab_raw in the assay with Der f 1 [10] is 37 counts. In addition, the Derp2_ab_raw with Der p 2 [11] turned out to be 60 counts.

The record behind these values is patent US20230349919A1 (Regeneron, published 2023).
